The values below come from article PMC10167327, “Inositol pyrophosphates activate the vacuolar transport chaperone complex in yeast by disrupting a homotypic SPX domain interaction” (Nature Communications, 2023).

Substitutions are numbered along the chain they refer to.

T1: Vtc2* (Vtc2(1–553), SPX and TTM domains of Vtc2 without the transmembrane domain) (S. cerevisiae, UniProt P43585 1-553)
T1 construct: Vtc2, subunit of the vacuolar transporter chaperone (VTC) complex, S. cerevisiae, residues 1-553 (SPX and TTM domains, no transmembrane domain); pET27b(+) construct from GenScript with a C-terminal TEV site and His10 tag; source: E. coli Lemo21(DE3) BL21, purified (HisTrap, Superdex 200)
T1 sequence (looked up): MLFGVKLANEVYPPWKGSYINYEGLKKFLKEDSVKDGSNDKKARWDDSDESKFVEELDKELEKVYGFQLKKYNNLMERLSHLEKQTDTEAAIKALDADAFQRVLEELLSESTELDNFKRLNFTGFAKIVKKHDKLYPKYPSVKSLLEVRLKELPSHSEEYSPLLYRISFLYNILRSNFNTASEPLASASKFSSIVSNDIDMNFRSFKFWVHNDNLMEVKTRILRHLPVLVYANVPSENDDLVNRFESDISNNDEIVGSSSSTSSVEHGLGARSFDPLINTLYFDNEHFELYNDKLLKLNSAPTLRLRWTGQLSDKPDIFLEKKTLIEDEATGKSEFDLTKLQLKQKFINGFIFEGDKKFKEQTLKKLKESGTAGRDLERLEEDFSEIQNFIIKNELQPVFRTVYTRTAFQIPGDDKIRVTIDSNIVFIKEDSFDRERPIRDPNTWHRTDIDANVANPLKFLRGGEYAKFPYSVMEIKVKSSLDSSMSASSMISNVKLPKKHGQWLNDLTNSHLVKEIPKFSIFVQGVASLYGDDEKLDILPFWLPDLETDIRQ

B1: SPX2∆α7 (Vtc2(1–182)) (domain or fragment, S. cerevisiae, UniProt P43585 1-182, looked up)
chain: MLFGVKLANEVYPPWKGSYINYEGLKKFLKEDSVKDGSNDKKARWDDSDESKFVEELDKELEKVYGFQLKKYNNLMERLSHLEKQTDTEAAIKALDADAFQRVLEELLSESTELDNFKRLNFTGFAKIVKKHDKLYPKYPSVKSLLEVRLKELPSHSEEYSPLLYRISFLYNILRSNFNTAS
notes: Vtc2, S. cerevisiae, residues 1-182 (SPX domain without helix α7 and the C-terminal linker); source: E. coli Lemo21(DE3) BL21, purified (as SPX2, cation exchange in 20 mM MES pH 6.0); not shown: His5, C-terminal, cleaved
B2: Vtc4* (Vtc4(1–487), SPX and TTM domains of Vtc4 without the transmembrane domain) (domain or fragment)
chain: not shown
modifications: RED-tris-NTA 2nd generation dye on the His tag (MST); RED-NHS 2nd generation dye (MST with TTM2)
notes: Vtc4, catalytic subunit of the vacuolar transporter chaperone (VTC) complex, yeast, residues 1-487 (SPX and TTM domains, no transmembrane domain); pET27b(+) construct from GenScript with a C-terminal TEV site and His10 tag; The dye is absent in NMR and cross-linking; also called Vtc4ΔTM; source: E. coli Lemo21(DE3) BL21, purified (HisTrap, Superdex 200); not shown: His10, C-terminal, kept
B3: SPX2 S187A (domain or fragment, S. cerevisiae, UniProt P43585 1-201, looked up)
chain: MLFGVKLANEVYPPWKGSYINYEGLKKFLKEDSVKDGSNDKKARWDDSDESKFVEELDKELEKVYGFQLKKYNNLMERLSHLEKQTDTEAAIKALDADAFQRVLEELLSESTELDNFKRLNFTGFAKIVKKHDKLYPKYPSVKSLLEVRLKELPSHSEEYSPLLYRISFLYNILRSNFNTASEPLAAASKFSSIVSNDIDM
notes: Vtc2, S. cerevisiae, residues 1-201 (SPX2) with a point mutation in helix α7; also called serine 187 to alanine; source: E. coli Lemo21(DE3) BL21, purified; not shown: His5, C-terminal, cleaved
B4: SPX2 (SPX domain of Vtc2, Vtc2(1–201)) (domain or fragment, S. cerevisiae, UniProt P43585 1-201, looked up)
chain: B3 chain with A187S
notes: Vtc2, S. cerevisiae, residues 1-201 (SPX domain with helix α7 and the C-terminal linker); Residues of the TEV site may remain at the C-terminus after cleavage; also called Vtc2-SPX domain; source: E. coli Lemo21(DE3) BL21, purified (HisTrap, TEV, reversed HisTrap, cation exchange, Superdex 75); not shown: His5, C-terminal, cleaved
B5: SPX2 S189A (domain or fragment, S. cerevisiae, UniProt P43585 1-201, looked up)
chain: B3 chain with A187S, S189A
notes: Vtc2, S. cerevisiae, residues 1-201 (SPX2) with a point mutation in helix α7; also called serine 189 to alanine; source: E. coli Lemo21(DE3) BL21, purified; not shown: His5, C-terminal, cleaved
B6: SPX2 Y19F (domain or fragment, S. cerevisiae, UniProt P43585 1-201, looked up)
chain: B3 chain with Y19F, A187S
notes: Vtc2, S. cerevisiae, residues 1-201 (SPX2) with a pseudo-active point mutation; source: E. coli Lemo21(DE3) BL21, purified; not shown: His5, C-terminal, cleaved
B7: SPX2 N121A (domain or fragment, S. cerevisiae, UniProt P43585 1-201, looked up)
chain: B3 chain with N121A, A187S
notes: as for B6
B8: SPX2 K127A (domain or fragment, S. cerevisiae, UniProt P43585 1-201, looked up)
chain: B3 chain with K127A, A187S
notes: as for B6

Experiment in all cases: MST; His-tagged Vtc4* or TTM4 labelled with RED-tris-NTA 2nd generation dye, titrated with Vtc2* or SPX2 proteins; MST buffer 15 mM HEPES pH 7.0, 50 mM NaCl, 2 mM DTT; Monolith NT.115, 100 % laser power
Common to all, as to conditions: both partners purified

The target in assay [1] is B2.
Assay [2] deals with T1, Vtc2* (Vtc2(1–553), SPX and TTM domains …).
In assay [3] the target is T2, TTM4 (TTM domain of Vtc4, Vtc4(192–487)) (S. cerevisiae, UniProt P47075 192-487, RED-tris-NTA 2nd generation dye on the His tag).
T2 construct: Vtc4, yeast, residues 192-487 (triphosphate tunnel metalloenzyme domain); pET27b(+) construct from GenScript with a C-terminal TEV site and His10 tag; source: E. coli Lemo21(DE3) BL21, purified (HisTrap, Superdex 200); not shown: His10, C-terminal, kept
T2 sequence (P47075 192-487): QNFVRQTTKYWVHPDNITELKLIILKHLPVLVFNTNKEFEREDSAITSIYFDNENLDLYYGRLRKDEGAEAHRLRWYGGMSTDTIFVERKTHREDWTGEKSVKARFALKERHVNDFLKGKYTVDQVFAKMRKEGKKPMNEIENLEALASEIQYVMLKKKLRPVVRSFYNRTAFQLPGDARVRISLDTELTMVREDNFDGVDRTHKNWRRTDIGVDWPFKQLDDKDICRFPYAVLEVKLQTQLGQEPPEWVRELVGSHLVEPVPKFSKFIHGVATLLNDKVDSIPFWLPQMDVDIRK

For B1, in assay [1], the binding result is reported as “binds”.
On to B2, for which the Kd (as a rule, the free concentration of one partner at which half of the binding sites on the other are occupied at equilibrium, for simple one-to-one binding) in assay [2] was found to be 13.8 µM. That is a double-digit micromolar value.
As for B3, in assay [1], the binding result was “binds”.
For the molecule B4, in assay [3], the “fold reduction of affinity against Vtc4*” value was roughly 20 fold.
As for B5, the binding result in assay [1] was “binds”.
Take B6: the binding result in assay [1] is “binds”.
With B7, the binding result in assay [1] is listed as “binds”.
As to B8, the binding result in assay [1] is “binds”.
